Twelve molecules from patent US20160185837A1 (AstraZeneca / MedImmune, published 2016) can be followed below.

What all share (assay): cell-based or functional assay
For test [1], the target named is human GLP-1 receptor (human, UniProt P43220 24-463).
The target of test [2] is human glucagon receptor (human, UniProt P47871 26-477).
The target in test [3] is T1, human GIP receptor (human, UniProt P48546 22-466).
T1 sequence (looked up): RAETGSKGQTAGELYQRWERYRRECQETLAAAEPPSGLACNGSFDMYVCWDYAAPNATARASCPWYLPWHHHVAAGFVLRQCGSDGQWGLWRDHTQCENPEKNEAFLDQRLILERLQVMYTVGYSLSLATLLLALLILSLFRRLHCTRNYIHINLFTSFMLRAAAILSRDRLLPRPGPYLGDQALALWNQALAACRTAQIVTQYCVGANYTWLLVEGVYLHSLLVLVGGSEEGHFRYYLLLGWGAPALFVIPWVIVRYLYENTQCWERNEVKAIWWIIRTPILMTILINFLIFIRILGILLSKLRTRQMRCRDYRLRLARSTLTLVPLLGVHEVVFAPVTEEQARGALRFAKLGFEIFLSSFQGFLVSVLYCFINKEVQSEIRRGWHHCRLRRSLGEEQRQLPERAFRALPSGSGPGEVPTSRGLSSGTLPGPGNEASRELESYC

In test [4] the target is T2, mouse GLP-1 receptor (mouse, UniProt O35659 22-463).
T2 sequence (looked up): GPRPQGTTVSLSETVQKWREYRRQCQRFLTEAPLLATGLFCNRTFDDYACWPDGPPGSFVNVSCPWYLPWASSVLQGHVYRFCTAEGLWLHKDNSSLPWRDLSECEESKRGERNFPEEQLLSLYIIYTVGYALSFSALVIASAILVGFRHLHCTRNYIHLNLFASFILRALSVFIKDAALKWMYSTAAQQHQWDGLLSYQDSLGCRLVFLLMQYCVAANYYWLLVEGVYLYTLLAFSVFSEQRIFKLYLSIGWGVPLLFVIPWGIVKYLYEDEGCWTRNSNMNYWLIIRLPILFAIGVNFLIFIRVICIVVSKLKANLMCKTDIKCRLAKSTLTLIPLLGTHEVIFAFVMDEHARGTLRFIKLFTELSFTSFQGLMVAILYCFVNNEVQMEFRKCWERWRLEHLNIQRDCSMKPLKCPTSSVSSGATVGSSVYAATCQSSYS

In test [5] the target is T3, mouse GIP receptor (mouse, UniProt Q0P543 19-460).
T3 sequence (looked up): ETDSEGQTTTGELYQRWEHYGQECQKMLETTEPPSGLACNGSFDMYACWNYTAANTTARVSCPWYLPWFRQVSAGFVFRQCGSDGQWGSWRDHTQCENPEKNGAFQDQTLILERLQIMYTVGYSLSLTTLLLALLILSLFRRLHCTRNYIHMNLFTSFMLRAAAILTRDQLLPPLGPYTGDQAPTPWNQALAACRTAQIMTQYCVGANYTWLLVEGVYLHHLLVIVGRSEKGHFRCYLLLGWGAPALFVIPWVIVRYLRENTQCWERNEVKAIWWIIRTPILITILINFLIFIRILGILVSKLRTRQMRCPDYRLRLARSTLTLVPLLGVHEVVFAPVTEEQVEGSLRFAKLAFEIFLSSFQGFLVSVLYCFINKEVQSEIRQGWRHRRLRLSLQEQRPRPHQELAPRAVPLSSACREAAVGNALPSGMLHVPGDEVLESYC

Test [6] has as its target T4, rat GLP-1 receptor (rat, UniProt P32301 22-463).
T4 sequence (looked up): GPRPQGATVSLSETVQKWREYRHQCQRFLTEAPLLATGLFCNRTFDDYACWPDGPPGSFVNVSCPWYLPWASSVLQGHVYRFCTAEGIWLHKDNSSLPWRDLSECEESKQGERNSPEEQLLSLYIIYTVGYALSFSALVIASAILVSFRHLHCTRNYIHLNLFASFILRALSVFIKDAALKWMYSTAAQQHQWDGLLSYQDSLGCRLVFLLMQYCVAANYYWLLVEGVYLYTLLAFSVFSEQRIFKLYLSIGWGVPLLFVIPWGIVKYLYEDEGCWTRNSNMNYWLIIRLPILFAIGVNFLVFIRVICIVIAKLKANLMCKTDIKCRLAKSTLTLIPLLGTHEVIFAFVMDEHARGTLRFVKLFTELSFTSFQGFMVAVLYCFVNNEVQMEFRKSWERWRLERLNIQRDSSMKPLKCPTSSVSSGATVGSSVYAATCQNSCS

The target in test [7] is T5, rat GIP receptor (rat, UniProt P43219 19-455).
T5 sequence (looked up): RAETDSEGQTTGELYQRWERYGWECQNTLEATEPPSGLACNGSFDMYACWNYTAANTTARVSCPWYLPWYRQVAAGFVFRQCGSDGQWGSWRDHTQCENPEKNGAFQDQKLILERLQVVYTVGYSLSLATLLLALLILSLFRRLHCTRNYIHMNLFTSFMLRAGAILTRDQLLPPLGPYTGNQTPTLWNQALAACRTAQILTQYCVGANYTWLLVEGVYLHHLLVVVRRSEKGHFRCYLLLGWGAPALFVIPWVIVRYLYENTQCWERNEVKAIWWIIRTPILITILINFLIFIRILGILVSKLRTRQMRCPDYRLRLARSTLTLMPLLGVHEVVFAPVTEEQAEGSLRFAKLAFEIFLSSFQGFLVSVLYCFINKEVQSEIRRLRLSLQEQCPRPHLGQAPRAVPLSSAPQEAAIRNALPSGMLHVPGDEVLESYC

B1: IP291 (Fc fusion)
chain: YSEGTFTSDYSKLLEEECVRLFIEWLVKGGPGGGAPPPGCGGGGGGGGGGGGGGGGGACPPC
As for B1, the “cAMP EC50” value in test [1] is 12000 pM; in test [2] it was more than 10.6 µM; in test [3] it was 120 pM; in test [4], 120000 pM; in test [5] it was 680 nM; in test [6], 3000 pM. The “cAMP EC50” value in test [7] was 1400 pM.

B2: IP292 (Fc fusion)
chain: YSEGTFTSDYSKLLEEEAVRCFIEWLVKGGPGGGAPPCGGGGGGGGGGGGGGGGGGGACPPC
With B2, the “cAMP EC50” value was 260 pM in test [1]; more than 13.6 µM in test [2]; 43 pM in test [3]; 1200 pM in test [4]; 66 nM in test [5]; 37 pM in test [6]. The “cAMP EC50” value in test [7] turned out to be 290 pM. In addition, the “cAMP EC50, Batch 2” value in test [1] was 1100 pM; in test [2], more than 14900 nM; in test [3], 46 pM; in test [4] it was 1.32 nM; in test [5], 55.4 nM; in test [6], 43.2 pM. In addition, in test [7], the “cAMP EC50, Batch 2” value came out at 186 pM.

B3: IP276 (Fc fusion)
chain: YSEGTFTSDYSKLLEEEAVRLFIEWLVKGPGGGGGGGGGGGGGGGGGATHTCPPC
With B3, the “cAMP EC50” value in test [1] amounted to 160 pM; in test [2] it was 1.5 µM; in test [3], 13 pM; in test [4] it was 340 pM; in test [5], 510 nM; in test [6] it was 28 pM. Also, the “cAMP EC50” value in test [7] amounted to 260 pM.

B4: IP293 (Fc fusion)
chain: YSEGTFTSDYSKLLEEEAVRCFIECLVKGPGGGGGGGGGGGGGGGGGGGGACPPC
Consider B4, for which the “cAMP EC50” value in test [1] is 1600 pM; in test [2], more than 13 µM; in test [3] it was 1200 pM; in test [4], 13000 pM; in test [5], 7800 nM; in test [6], 450 pM. Further, the “cAMP EC50” value in test [7] worked out at 16000 pM.

B5: IP279 (Fc fusion)
chain: YSEGTFTSDYSKLLEEEAVRLFIEWLVKGPSSGAPPPSGGGGGSGGGGSGGGGSGGGGSATHTCPPC
As for B5, the “cAMP EC50” value in test [1] came to 100 pM; in test [2], 0.17 µM; in test [3], 10 pM; in test [4], 220 pM; in test [5], 43 nM; in test [6] it was 24 pM. For the same molecule, in test [7], the “cAMP EC50” value was found to be 97 pM.

B6: IP272 (Fc fusion)
chain: YSEGTFTSDYSKLLEEEAVRLFIEWLLAQKAPPGGSGSTASSGSGSATGGGGAATHTCPPC
In the case of B6, the “cAMP EC50” value came out at 530 pM in test [1]; 1.7 µM in test [2]; 11 pM in test [3]; 2300 pM in test [4]; 11 nM in test [5]; 85 pM in test [6]. Besides, the “cAMP EC50” value in test [7] was found to be 48 pM.

B7: IP273 (Fc fusion)
chain: YSEGTFTSDYSKLLEEEAVRLFIEWLVKGPAAAGGSGSTASSGSGSATGGGGAATHTCPPC
As for B7, the “cAMP EC50” value amounted to 100 pM in test [1]; 0.67 µM in test [2]; 8.4 pM in test [3]; 190 pM in test [4]; 85 nM in test [5]; 20 pM in test [6]. Further, the “cAMP EC50” value in test [7] was found to be 90 pM.

B8: IP278 (Fc fusion)
chain: YSEGTFTSDYSKLLEEEAVRLFIEWLVKGPPSSGAPPPSGGGGGSGGGGSGGGGSGGGGSATHTCPPC
With B8, the “cAMP EC50” value in test [1] turned out to be 130 pM; in test [2], 0.078 µM; in test [3], 11 pM; in test [4] it was 320 pM; in test [5] it was 85 nM; in test [6], 26 pM. In test [7], the “cAMP EC50” value was found to be 130 pM.

B9: IP280 (Fc fusion)
chain: YSEGTFTSDYSKLLEEEAVRLFIEWLVKGGPSSGAPPPSGGGGGSGGGGSGGGGSGGGGSATHTCPPC
In the case of B9, the “cAMP EC50” value in test [1] turned out to be 77 pM; in test [2], 0.52 µM; in test [3] it was 5.6 pM; in test [4], 210 pM; in test [5] it was 8.8 nM; in test [6] it was 27 pM. For the same molecule, in test [7], the “cAMP EC50” value is 46 pM. Further, the “cAMP EC50, Batch 2” value in test [1] came to 58 pM; in test [2], 270 nM; in test [3] it was 4.5 pM. Moreover, the “cAMP EC50, Batch 3” value in test [1] turned out to be 80 pM; in test [2] it was 280 nM; in test [3] it was 6.4 pM.

B10: IP267 (Fc fusion)
chain: YSEGTFTSDYSKLLEEEHVRLFIEWLVKGPGGGGGSGGGGSGGGGSGGGGSATHTCPPC
For B10, the “cAMP EC50” value in test [1] is 1500 pM; in test [2], 5.8 µM; in test [3] it was 120 pM; in test [4], 10000 pM; in test [5], more than 278 nM; in test [6], 300 pM. The “cAMP EC50” value in test [7] came out at 810 pM.

B11: IP268 (Fc fusion)
chain: YSEGTFTSDYSKLLEEEAVRLFIEWLVKGPGGGGGSGGGGSGGGGSGGGGSATHTCPPC
On to B11, for which the “cAMP EC50” value in test [1] is 120 pM; in test [2], 2.9 µM; in test [3] it was 10 pM; in test [4] it was 280 pM; in test [5] it was 210 nM; in test [6], 26 pM. In test [7], the “cAMP EC50” value was determined as 150 pM. Besides, the “cAMP EC50, hGIPr (C3) line” value in test [3] came to 3.8 nM.

B12: IP274 (Fc fusion)
chain: YSEGTFTSDYSKLLEKEAVRLFIEWLLKGPGGGGGSGGGGSGGGGSGGGGSATHTCPPC
For the molecule B12, the “cAMP EC50” value in test [1] amounted to 360 pM; in test [2], 0.038 µM; in test [3], 17 pM; in test [4] it was 1200 pM; in test [5], 1 nM; in test [6], 57 pM. Further, the “cAMP EC50” value in test [7] stood at 28 pM. Also, the “cAMP EC50, Batch 2” value was found to be 200 pM in test [1], 30 nM in test [2] and 14 pM in test [3].
